From patent US20150065440A1, “SULFATED OLIGOSACCHARIDE DERIVATIVES” (Progen Pharmaceuticals Limited, priority 2007, published 2015)

Substrate: CO[C@H]1O[C@H](COS(=O)(=O)O)[C@@H](O[C@@H]2O[C@@H](C(=O)O)[C@@H](O[C@H]3O[C@H](COS(=O)(=O)O)[C@@H](O[C@@H]4O[C@H](C(=O)O)[C@@H](O[C@H]5O[C@H](COS(=O)(=O)O)[C@@H](O)[C@H](O)[C@H]5NS(=O)(=O)O)[C@H](O)[C@H]4O)[C@H](OS(=O)(=O)O)[C@H]3NS(=O)(=O)O)[C@H](O)[C@H]2OS(=O)(=O)O)[C@H](O)[C@H]1NS(=O)(=O)O
Assay: purified protein, by the assay type
Conditions: other: substrate of heparanase; pH 5.0
Method: In the presence of an inhibitor the catalytic activity of heparanase is reduced, and the amount of disaccharide produced and the optical density of the solution are both decreased. The percent inhibition and IC50 of the inhibitor are determined from measurement of the optical density (OD) over a range of inhibitor concentrations.
Assays were carried out in 40 mM sodium acetate buffer, pH 5.0, as follows. […] A blue colour was developed by incubation of the plates at 60° C. for 60 min. […] The IC50 value for each compound was evaluated and converted into a Ki (inhibition constant) using the expression

B1: recombinant human heparanase (Homo sapiens) (protein)
chain 1: KKFKNSTYSRSSVDVLYTFANCSGLDLIFGLNALLRTADLQWNSSNAQLLLDYCSSKGYNISWELGNEPNSFLKKADIFINGSQLGEDFIQLHKLLRKSTFKNAKLYGPDVGQPRRKTAKMLKSFLKAGGEVIDSVTWHHYYLNGRTATKEDFLNPDVLDIFISSVQKVFQVVESTRPGKKVWLGETSSAYGGGAPLLSDTFAAGFMWLDKLGLSARMGIEVVMRQVFFGAGNYHLVDENFDPLPDYWLSLLFKKLVGTKVLMASVQGSKRRKLRVYLHCTNTDNPRYKEGDLTLYAINLHNVTKYLRLPYPFSNKQVDKYLLRPLGPHGLLSKSVQLNGLTLKMVDDQTLPPLMEKPLRPGSSLGLPAFSYSFFVIRNAKVAACI
chain 2: QDVVDLDFFTQEPLHLVSPSFLSVTIDANLATDPRFLILLGSPKLRTLARGLSPAYLRFGGTKTDFLIFDPKKE
How did the Km turn out when B1 was run?
Its Km is 33 ± 6 µM.
